The values that follow come from US20220228157A1, “GENE EDITING IN DIVERSE BACTERIA” (priority 2019, published 2022).

The test system of one series is E. coli MG1655. As to the kind of experiment: Single-cycle multiplex genome editing with oligo pools, read out by NGS. The note with it: for Average editing efficiency at all loci: 19 simultaneous edits. It is filed as cell-based, Escherichia coli. The protocol:
CspRecT was then tested at a variety of more complex genome editing tasks. For longer strings of consecutive mismatches, which are lower efficiency events, CspRecT was again about twice as efficient as Redβ. […] To further investigate the performance of CspRecT at complex, highly multiplexed genome editing tasks, a set of 20 oligos spaced evenly around the E. coli genome was designed, each of which incorporates a single-nucleotide synonymous mutation at a non-essential gene. Next, while expressing Redβ, PapRecT, and CspRecT separately from the corresponding pORTMAGE plasmid, a single cycle of genome editing was performed with equimolar pools of 1, 5, 10, 15, and 20 oligos and assayed editing efficiency at each locus by PCR amplification coupled to targeted next generation sequencing (NGS). […] For instance, when making 19 simultaneous edits (one oligo from the pool of 20 could not be read out due to inconsistencies in allelic amplification), CspRecT averaged 5.1% editing efficiency at all loci, whereas Redβ and PapRecT averaged only 0.40% and 0.43%. Importantly, despite keeping total oligo concentration fixed across all pools, aggregate editing efficiency increased as more oligos were present in each pool. For instance, when using CspRecT with a 19-oligo pool, aggregate editing efficiency was nearly 100%, implying that across the total recovered population of E. coli there averaged one edit per cell.
To measure single locus editing, a recombineering cycle was run with an oligo that confers a single base pair non-coding mismatch in a non-essential gene. The allele was then amplified by PCR and editing efficiency was measured by NGS as described above. To test multiplex editing, the concentration of oligo was held fixed (10 μM in the final electroporation mixture), but the total number of oligos in the mixture was varied. Pools of oligos to test editing at 5, 10, 15, or 20 alleles simultaneously were designed so as to space the edits relatively evenly around the genome. The 5-oligo pool contained oligo #'s 3,7,11,15,17, the 10-oligo pool added oligo #'s 1,5,9,13,19, the 15-oligo pool added oligo #'s 4,8,12,16,18, and the final 20-oligo pool contained silent mismatch MAGE oligos.

A further series relates to L. rhamnosus. It is filed as cell-based. The note with it: L. rhamnosus. The protocol:
Finally, the model for RecT was used to establish recombineering in L. rhamnosus, a well-studied probiotic used to treat a variety of illnesses including diarrhea and bacterial vaginosis. Although the L. rhamnosus SSB and L. lactis SSB only have 47% identity, they share identical SSB C-terminal tail 7 amino acids. It was determined whether LrpRecT (which functions in L. lactis) is portable to L. rhamnosus, while the other RecT proteins would not be functional.

Series [1] has as its system Pseudomonas aeruginosa PAO1. Description: Recombineering efficiency by selective plating. It is filed as cell-based. From the text:
To test the activity of PapRecT and CspRecT in these three organisms, the broad-host-range pORTMAGE system (Nyerges et al., Proc. Natl. Acad. Sci. U.S.A. 113, 2502-2507 (2016)) was built on as described above. For experiments in E. coli PapRecT or CspRecT was subcloned in place of Redβ into pORTMAGE311B (Szili et al., Antimicrob. Agents Chemother. AAC.00207-19 (2019) doi:10.1128/AAC.00207-19) (FIGS. 10A-10B; Addgene accession: #120418), which transiently disrupts MMR with EcMutL_E32K, and whose RSF1010 origin of replication and m-toluic-acid-based expression system allows the plasmid to be deployed over a broad range of bacterial hosts (Honda et al., Proc. Natl. Acad. Sci. U.S.A. 88, 179-183 (1991); Gawin et al., Microb. Biotechnol. 10, 702 (2017)). These same pORTMAGE-based constructs were used for testing in C. freundii and K. pneumoniae. […] It was found, however, that the efficiency of the plasmid construct was lower in P. aeruginosa than in the enterobacterial species that pORTMAGE was optimized for. Therefore, to increase editing efficiency in P. aeruginosa, i.) ribosomal binding sites (RBS) for PapRecT and EcMutL were optimized, ii.) EcMutL_E32K was replaced with its equivalent homologous mutant from P. aeruginosa (PaMutL_E36K), iii.) the native P. aeruginosa coding sequence for PapRecT was incorporated instead of the E. coli codon-optimized version (FIG. 13).
Virulent strains of P. aeruginosa are a frequent cause of acute infections in healthy individuals, as well as chronic infections in high-risk patients, such as those suffering from cystic fibrosis (Marvig et al., Nat. Genet. 47, 57-64 (2015)). The rate of antibiotic resistance in this species is growing, with strains adapting quickly to all clinically applied antibiotics (AbdulWahab et al., Lung India Off. Organ Indian Chest Soc. 34, 527-531 (2017); Tacconelli et al., Lancet Infect. Dis. 18, 318-327 (2018)). […] By genotyping and characterizing resistant colonies, the Minimum Inhibitory Concentration (MIC) of CIP for various resistant genotypes could be determined (Table 2, FIG. 14). […]

Where two headings read alike, the source gives them in different places.

B1: CspRecT: RecT SSAP (UniParc ID: UPI0001837D7F) from a phage of Collinsella stercoris (protein)
chain: MNQIVKFTDDSGLAVQVTPDDVRRYICENATEKEVGLFLQLCQTQRLNPFVKDAYLVKYGGAPASMITSYQVFNRRACRDANYDGIKSGVVVLRDGDVVHKRGAACYKKAGEELIGGWAEVRFKDGRETAYAEVALDDYSTGKSNWAKMPGVMIEKCAKAAAWRLAFPDTFQGMYAAEEMDQAQQPEQVRAQAEQPVDLQPIRELFKPYCEHFGITPAEGMTAVCGAVGAEGMHSMTEQQARRARAWMEEEMAAPAVEAEYEVVDEGEVF
modifications: Collinsella stercoris DSM 13279
The molecule B1 registered an Aggregate editing efficiency with E. coli MG1655 (19-oligo pool) of approximately 100%. In addition, in the series on E. coli MG1655, the “Average editing efficiency at all loci” value came out at 5.1%.

B2: Redβ: Redβ SSAP from Enterobacteria phage λ, SEQ ID NO: 474 (protein)
chain: MSTALATLAGKLAERVGMDSVDPQELITTLRQTAFKCDASDAQFIALLIVANQYGLNPWTKEIYAFPDKQNGIVPVVGVDGWSRIINENQQFDGMDFEQDNESCTCRIYRKDRNHPICVTEWMDECRREPFKTREGREITGPWQSHPKRMLRHKAMIQCARLAFGFAGIYDKDEAERIVENTAYTAERQPERDITPVNDETMQEINTLLIALDKTWDDDLLPLCSQIFRRDIRASSELTQAEAVKALGFLKQKATEQKVAA
modifications: Bacteriophage Lambda
On to B2, for which the “Average editing efficiency at all loci” value in the series on E. coli MG1655 was 0.40%. Further, the “Oligonucleotide incorporation” value in the series with L. rhamnosus is listed as “negligible activity”. The “Editing performance in P. aeruginosa” value in series [1] was “does not work”.

B3: PapRecT: SSAP from Pseudomonas aeruginosa, SEQ ID NO: 24, UniParc ID: UPI0001E9E6CB (protein, listed as Pseudomonas aeruginosa)
chain: MGTALTPLLTKFATRYEMGTTPEEVANTLKQTCFKGQVNDSQMVALLIVADQYKLNPFTKELYAFPDKNNGIVPVVGVDGWARIINENPQFDGMEFSMDQQGTECTCKIYRKDRSHAISATEYMAECKRNTQPWQSHPRRMLRHKAMIQCARLAFGFAGIYDQDEAERIVERDVTPAEQYEDVSEAICLIKDSPTMEDLQAAFSNAWKAYKTKGARDQLTAAKDQRKKELLDAPIDVEFEETGDDRAA
For the molecule B3, the “Average editing efficiency at all loci” value with E. coli MG1655 turned out to be 0.43%. For the same molecule, the “Oligonucleotide incorporation” value with L. rhamnosus is “negligible activity”. Further, the “Editing performance in P. aeruginosa” value in series [1] is on record as “performed the best”; in series [1] (listed as SSAP SEQ ID NO: 24) it was “functions at high efficiency”.
